These results are taken from publication PMC9889962.

recombinant human FcγRI receptor (CD64), sequence (P12314 16-374): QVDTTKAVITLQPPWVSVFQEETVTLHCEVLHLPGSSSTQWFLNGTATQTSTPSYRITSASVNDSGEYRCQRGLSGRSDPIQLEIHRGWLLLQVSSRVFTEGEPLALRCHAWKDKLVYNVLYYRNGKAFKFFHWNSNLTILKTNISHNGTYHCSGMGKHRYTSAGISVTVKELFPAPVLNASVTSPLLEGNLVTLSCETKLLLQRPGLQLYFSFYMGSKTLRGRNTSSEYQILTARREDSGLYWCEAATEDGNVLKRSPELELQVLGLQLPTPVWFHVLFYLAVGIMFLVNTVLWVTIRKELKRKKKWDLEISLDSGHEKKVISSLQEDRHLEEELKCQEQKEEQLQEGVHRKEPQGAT

The test concerns the target recombinant human FcγRI receptor (CD64) (UniProt P12314). The test is described as follows: SPR. The following applies: immobilized human FcγRI (CD64); parent: est. 100; read off a plot.
On to IgG1 (control) Agly, for which the percent of parent was determined as 24%.
To IgG1 (control) DAPA belongs 34%; to IgG1 (control) FES, 21%.
To IgG1 (control) FQQ belongs 32%; to IgG1 (control) LAGA, 8.5%.
With IgG1 (control) LALA, the percent of parent worked out at 27%.
Then IgG1 (control) LALAKA, with 26%.
To IgG1 (control) LALE belongs 8%; to IgG1 (control) LGGR, 6%; to IgG1 (control) Sigma, 3.5%.
